From US20230087785A1, “Leucine-Rich Repeat Kinase 2 Allosteric Modulators” (VIB VZW, priority 2020, published 2023)
Values belong to the molecule of their own block, whether it stands above or below them.

Biological target: T1, LRRK2 (Homo sapiens, UniProt Q5S007, M2397T/R50H)
T1 construct: Full-length human LRRK2 was expressed and purified based on previously developed protocols; SF tag (FLAG-tag + Twin-Strep-tag); made in house; host or cells: HEK 293T
Experiment: Competition ELISA titration
Type: binding
Conditions: Nb 450 nM to 0.2 nM; for shift of the Nb ELISA titration curve in presence of AdoCbl: 250 μM; for shift of the Nb ELISA titration curve in presence of MLi-2: large excess of MLi-2 (1 μM)
Source text: LRRK2 was coated in the wells of the ELISA plate and the ELISA signal for a dilution series of the respective Nbs (detected via their C-terminal EPEA-tag) is plotted in function of the Nb concentration. […] A “no antigen control”, where no LRRK2 was coated on the bottom of the well, is also included.
Most currently described LRRK2 inhibitors bind directly to the ATP-binding pocket of the kinase domain. […] Two of the in vitro kinase activity inhibiting Nbs described herein (Nb 1 and Nb6) bind LRRK2 predominantly via interactions with the COR-B domain, thus proposing a novel mechanism of action, and thereby excluding a mechanism of inhibition similar to these previously described LRRK2 kinase inhibitors that all directly interact with the kinase domain. […] To verify and confirm that Nb1, Nb6 and Nb23 bind LRRK2 in a different mode than any known small molecule kinase inhibitor, thus also different that the reported vitamin B12 forms, a competition ELISA titration experiment was performed (FIGS. 17A-17C). In this experimental setup, the ELISA experiment was performed using a fixed concentration of LRRK2 coated on the bottom of the ELISA plate, and using a dilution series of either of the three Nbs ranging from 450 nM to 0.2 nM. Detection of Nb binding in ELISA is performed using their C-terminal EPEA-tag, resulting in a dose-response titration curve reflecting an apparent affinity of the Nbs. […] Additionally, as a positive control, a repetition of the setup was performed in presence of an excess (9 μm) of the corresponding untagged Nb.
The ELISA experiment was performed similar as described above, using a fixed concentration of LRRK2 coated on the bottom of the ELISA plate, and using a 1:4 dilution series of Nb1, Nb6 or Nb23 ranging from 450 nM to 0.2 nM. Detection of Nb binding was performed using the C-terminal EPEA tag of the Nbs as described before, resulting in a dose response titration curve reflecting an apparent affinity of the Nbs. […] A “no antigen control”, where no LRRK2 was coated on the bottom of the well, was also included. The absorbance signal (A405 nm) was read out at different time points and the A405 nm at 0.5 h (Nb6 and Nb23) or 10 h (Nb1) was plotted in function of the Nb concentration.

T1 sequence (Q5S007 whole entry R50H/M2397T): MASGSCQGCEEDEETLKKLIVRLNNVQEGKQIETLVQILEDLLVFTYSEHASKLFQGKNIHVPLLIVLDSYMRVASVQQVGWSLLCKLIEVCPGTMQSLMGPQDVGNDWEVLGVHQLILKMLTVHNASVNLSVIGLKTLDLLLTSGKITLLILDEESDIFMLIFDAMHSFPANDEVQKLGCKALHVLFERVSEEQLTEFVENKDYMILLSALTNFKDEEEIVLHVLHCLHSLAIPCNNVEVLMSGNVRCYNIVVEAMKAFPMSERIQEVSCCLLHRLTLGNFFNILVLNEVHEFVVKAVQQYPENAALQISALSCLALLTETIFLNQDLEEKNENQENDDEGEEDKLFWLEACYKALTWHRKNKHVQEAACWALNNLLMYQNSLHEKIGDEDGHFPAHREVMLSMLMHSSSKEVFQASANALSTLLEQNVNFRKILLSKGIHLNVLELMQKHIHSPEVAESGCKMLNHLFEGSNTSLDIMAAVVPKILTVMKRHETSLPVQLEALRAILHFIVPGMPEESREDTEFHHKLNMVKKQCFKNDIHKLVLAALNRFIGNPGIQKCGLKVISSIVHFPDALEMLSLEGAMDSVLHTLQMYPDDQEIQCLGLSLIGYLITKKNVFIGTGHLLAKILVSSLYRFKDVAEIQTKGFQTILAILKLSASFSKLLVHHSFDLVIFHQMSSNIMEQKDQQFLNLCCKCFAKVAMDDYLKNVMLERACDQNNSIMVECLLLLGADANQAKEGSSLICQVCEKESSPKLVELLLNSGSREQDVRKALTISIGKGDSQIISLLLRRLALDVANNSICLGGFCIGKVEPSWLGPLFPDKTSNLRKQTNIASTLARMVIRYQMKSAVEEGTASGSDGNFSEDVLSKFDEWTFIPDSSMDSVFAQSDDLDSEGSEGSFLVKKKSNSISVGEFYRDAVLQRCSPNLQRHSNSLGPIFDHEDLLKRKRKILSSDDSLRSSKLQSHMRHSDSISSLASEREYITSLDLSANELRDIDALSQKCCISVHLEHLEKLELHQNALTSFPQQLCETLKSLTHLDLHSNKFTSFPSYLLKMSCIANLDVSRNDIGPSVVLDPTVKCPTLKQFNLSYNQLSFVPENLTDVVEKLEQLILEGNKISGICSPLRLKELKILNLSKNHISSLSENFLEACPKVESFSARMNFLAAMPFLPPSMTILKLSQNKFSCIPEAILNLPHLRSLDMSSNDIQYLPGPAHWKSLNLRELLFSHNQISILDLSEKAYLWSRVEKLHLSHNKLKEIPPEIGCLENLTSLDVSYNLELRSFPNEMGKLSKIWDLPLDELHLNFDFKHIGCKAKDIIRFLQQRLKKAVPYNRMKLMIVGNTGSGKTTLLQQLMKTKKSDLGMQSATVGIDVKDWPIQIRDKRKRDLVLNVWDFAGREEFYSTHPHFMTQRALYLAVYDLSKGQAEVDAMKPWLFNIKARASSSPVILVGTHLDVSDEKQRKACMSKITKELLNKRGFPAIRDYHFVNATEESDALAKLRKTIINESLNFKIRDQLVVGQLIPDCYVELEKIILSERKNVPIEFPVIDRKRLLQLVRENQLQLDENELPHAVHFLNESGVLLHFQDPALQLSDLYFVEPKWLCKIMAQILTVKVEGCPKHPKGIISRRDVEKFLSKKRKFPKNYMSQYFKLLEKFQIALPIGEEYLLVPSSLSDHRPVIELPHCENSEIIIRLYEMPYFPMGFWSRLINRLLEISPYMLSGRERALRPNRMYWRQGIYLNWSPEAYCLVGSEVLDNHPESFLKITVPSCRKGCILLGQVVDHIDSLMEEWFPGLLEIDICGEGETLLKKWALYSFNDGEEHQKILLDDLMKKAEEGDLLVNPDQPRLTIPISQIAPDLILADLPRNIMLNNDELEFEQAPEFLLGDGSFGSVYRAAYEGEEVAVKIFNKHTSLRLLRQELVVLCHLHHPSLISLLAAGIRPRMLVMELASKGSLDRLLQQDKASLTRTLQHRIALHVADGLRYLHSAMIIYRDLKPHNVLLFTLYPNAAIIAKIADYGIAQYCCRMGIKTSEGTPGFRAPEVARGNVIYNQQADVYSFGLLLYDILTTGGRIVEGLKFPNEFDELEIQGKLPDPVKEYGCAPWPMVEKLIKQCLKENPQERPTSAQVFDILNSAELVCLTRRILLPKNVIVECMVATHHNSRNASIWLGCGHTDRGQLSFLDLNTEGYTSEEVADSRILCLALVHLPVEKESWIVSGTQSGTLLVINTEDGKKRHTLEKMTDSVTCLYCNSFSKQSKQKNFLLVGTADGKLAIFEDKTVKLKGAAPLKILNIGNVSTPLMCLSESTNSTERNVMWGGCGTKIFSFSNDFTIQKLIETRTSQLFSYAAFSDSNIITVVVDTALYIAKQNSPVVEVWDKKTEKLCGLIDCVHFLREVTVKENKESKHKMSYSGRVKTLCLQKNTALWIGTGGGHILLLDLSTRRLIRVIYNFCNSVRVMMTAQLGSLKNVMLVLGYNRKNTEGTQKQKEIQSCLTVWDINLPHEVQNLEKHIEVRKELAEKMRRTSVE

shift of the Nb ELISA titration curve in presence of AdoCbl: no rightward shift is observed | shift of the Nb ELISA titration curve in presence of MLi-2: no rightward shift is observed
B1: Nb6: LRRK2-specific Nanobody, SEQ ID NO: 2 (protein)
VHH: MAQVQLVESGGGLVQAGGSLRLSCAASGSIFSPTAMGWYRQAPGKERELVAGITSGGYTNYRNFARGRFTISRDNAKKTVYLQMNSLNPEDTAVYYCNTLTISWSWGQGTQVTVSS
modifications: Nanobody CA12618

shift of the Nb ELISA titration curve in presence of AdoCbl: no rightward shift is observed | shift of the Nb ELISA titration curve in presence of MLi-2: no rightward shift is observed
B2: Nb1: LRRK2-specific Nanobody, SEQ ID NO: 1 (protein)
VHH: MAQVQLVESGGGLVQAGGSLRLSCVASGRIFSGNAMGWYRQAPGRQRELVAGITNGGYTNYRQFVKGRFTISRDNAKRTVYLQMNSLKPEDTAVYYCNALDREARQVDYWGQGTQVTVSS
modifications: Nanobody CA12610

shift of the Nb ELISA titration curve in presence of AdoCbl: no rightward shift is observed | shift of the Nb ELISA titration curve in presence of MLi-2: no rightward shift is observed
B3: Nb23: LRRK2-specific Nanobody, SEQ ID NO: 3 (protein)
VHH: MAQVQLVESGGGLVQAGGSLRLSCAASGRTFSRYTMGWFRQAPGKDREFVARITTSGAVTTYADSAKGRFTISRDNAKNTVYLQMNTLKPEDTAVYYCAAGQGQLSSQSRFVDYWGQGTQVTVSS
modifications: Nanobody CA13612
